Data taken from US20220249561A1.

Target: ALK 001P
Assay: flow cytometry; CAR-T cells incubated with ALK 001P, detected with PE anti-His tag antibody and APC anti-CD3

Sequence of ALK 001P (chain, as listed by the source limits assumed): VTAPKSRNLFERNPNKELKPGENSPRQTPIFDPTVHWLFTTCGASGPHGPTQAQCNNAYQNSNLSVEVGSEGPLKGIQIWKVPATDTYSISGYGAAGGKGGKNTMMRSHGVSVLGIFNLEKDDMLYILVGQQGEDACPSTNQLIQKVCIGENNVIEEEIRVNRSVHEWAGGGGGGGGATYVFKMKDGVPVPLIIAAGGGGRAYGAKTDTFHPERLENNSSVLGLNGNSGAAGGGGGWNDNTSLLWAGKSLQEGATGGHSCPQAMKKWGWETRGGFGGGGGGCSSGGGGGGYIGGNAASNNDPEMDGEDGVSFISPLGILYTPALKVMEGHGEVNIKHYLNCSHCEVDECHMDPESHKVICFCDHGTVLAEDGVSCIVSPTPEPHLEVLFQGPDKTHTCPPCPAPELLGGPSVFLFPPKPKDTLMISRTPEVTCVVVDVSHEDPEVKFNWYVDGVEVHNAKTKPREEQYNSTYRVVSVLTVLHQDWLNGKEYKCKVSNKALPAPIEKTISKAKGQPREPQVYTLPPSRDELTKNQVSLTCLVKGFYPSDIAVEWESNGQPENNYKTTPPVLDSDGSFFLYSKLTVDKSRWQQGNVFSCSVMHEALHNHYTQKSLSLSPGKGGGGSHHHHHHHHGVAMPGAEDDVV

B1: CAR 021 (FAM150BTr-28z dCH2CH3) (protein)
chain: AEAAGLGPSPEQRVEIVPRDLRMKDKFLKHLTGPLYFSPKCSKHFHRLYHNTRDCTIPAYYKRCARLLTRLAVSPVCMEDKQEPKSCDKTHTCPPCDPAEPKSPDKTHTCPFWVLVVVGGVLACYSLLVTVAFIIFWVRSKRSRLLHSDYMNMTPRRPGPTRKHYQPYAPPRDFAAYRSRVKFSRSADAPAYQQGQNQLYNELNLGRREEYDVLDKRRGRDPEMGGKPRRKNPQEGLYNELQKDKMAEAYSEIGMKGERRRGKGHDGLYQGLSTATKDTYDALHMQALPPR
Expression rate (% of cells positive for ALK 001P staining): 24.1%
